Laboratory results as given in article PMC9482650, “Quantitative fragmentomics allow affinity mapping of interactomes” (Nature Communications, 2022).

Legend:
Assay in all cases: holdup assay
Parameters in all cases: key: below the threshold = too weak to quantify, mostly under pKd 3.1 to 4
Conditions in all cases: plain residues with an end cap or a label only (N-terminal biotin on a linker: ttds)
[1] = molecular target: CNKSR3, Q6P9H4
[2] = molecular target: DVL2, O14641
[3] = molecular target: T1, GIPC1, O14908
T1 sequence (O14908 128-223, limits assumed, looked up): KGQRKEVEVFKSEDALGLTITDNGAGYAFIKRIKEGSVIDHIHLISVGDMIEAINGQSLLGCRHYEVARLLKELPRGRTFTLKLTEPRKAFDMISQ

[4] = molecular target: T2, LNX2_4, Q8N448
T2 sequence (Q8N448 595-690, limits assumed, looked up): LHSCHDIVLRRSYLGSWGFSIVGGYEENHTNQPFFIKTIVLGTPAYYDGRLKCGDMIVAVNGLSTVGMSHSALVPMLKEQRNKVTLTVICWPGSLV

[5] = molecular target: T3, MAGI2_1, Q86UL8
T3 sequence (Q86UL8 12-111, limits assumed, looked up): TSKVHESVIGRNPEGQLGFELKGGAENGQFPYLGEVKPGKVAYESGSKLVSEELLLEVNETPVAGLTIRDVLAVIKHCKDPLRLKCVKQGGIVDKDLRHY

[6] = molecular target: MAST3, O60307
Chain of MAST3, O60307 (O60307 945-1048): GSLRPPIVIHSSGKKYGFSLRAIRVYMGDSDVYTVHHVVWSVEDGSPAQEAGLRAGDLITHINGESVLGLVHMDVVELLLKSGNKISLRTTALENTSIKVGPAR

[7] = molecular target: T4, MPDZ_11, O75970
T4 sequence (O75970 1720-1817, limits assumed, looked up): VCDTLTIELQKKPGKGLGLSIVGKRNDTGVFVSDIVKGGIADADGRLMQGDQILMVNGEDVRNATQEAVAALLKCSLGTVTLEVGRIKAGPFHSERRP

[8] = molecular target: T5, MPP1, Q00013
T5 sequence (Q00013 66-162, limits assumed, looked up): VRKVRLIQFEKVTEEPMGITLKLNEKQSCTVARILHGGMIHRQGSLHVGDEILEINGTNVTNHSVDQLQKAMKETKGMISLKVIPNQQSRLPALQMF

[9] = molecular target: T6, MPP5, Q8N3R9
T6 sequence (Q8N3R9 251-346, limits assumed, looked up): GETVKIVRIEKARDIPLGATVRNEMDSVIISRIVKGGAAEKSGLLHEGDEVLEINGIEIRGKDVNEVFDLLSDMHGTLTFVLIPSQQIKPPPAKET

[10] = molecular target: T7, NHERF1_2, O14745
T7 sequence (O14745 149-244, limits assumed, looked up): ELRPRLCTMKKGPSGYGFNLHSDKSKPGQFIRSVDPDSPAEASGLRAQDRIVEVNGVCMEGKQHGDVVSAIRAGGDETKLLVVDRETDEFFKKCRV

[11] = molecular target: T8, PDLIM3, Q53GG5
T8 sequence (Q53GG5 1-94, limits assumed, looked up): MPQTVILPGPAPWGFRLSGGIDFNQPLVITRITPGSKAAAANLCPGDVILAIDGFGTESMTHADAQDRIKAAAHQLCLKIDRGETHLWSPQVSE

[12] = molecular target: T9, PDZD2_3, O15018
T9 sequence (O15018 581-682, limits assumed, looked up): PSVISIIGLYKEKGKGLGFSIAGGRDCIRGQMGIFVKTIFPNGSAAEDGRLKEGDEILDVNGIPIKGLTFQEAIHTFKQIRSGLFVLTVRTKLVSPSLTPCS

[13] = molecular target: T10, PDZD2_6, O15018
T10 sequence (O15018 2745-2839, limits assumed, looked up): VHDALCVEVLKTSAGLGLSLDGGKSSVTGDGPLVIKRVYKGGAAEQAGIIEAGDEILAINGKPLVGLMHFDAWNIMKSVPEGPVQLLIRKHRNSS

[14] = molecular target: RGS3, P49796-9
Chain of RGS3, P49796-9 (P49796 other isoform, or with tags, fused parts or gaps): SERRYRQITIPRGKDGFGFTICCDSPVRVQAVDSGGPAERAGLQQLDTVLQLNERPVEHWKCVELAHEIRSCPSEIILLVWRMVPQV

[15] = molecular target: RIMS1, Q86UR5
Chain of RIMS1, Q86UR5 (Q86UR5 584-692): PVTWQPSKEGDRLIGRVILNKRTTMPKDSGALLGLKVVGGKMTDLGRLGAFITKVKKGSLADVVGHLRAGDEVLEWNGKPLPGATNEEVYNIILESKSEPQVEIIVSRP

[16] = molecular target: RIMS2, Q9UQ26
Chain of RIMS2, Q9UQ26 (Q9UQ26 637-758): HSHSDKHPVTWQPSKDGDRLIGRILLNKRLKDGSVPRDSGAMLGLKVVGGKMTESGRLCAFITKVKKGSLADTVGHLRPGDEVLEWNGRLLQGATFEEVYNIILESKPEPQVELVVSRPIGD

[17] = molecular target: T11, SHANK2, Q9UPX8
T11 sequence (Q9UPX8 621-730, limits assumed, looked up): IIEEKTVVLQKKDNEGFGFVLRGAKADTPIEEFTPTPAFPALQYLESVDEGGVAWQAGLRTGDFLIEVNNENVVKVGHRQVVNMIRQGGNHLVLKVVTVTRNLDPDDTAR

[18] = molecular target: T12, SHANK3, Q9BYB0
T12 sequence (Q9BYB0 641-750, limits assumed, looked up): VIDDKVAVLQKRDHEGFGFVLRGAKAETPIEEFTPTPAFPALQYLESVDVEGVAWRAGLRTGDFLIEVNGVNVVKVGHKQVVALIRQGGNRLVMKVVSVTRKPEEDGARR

[19] = molecular target: T13, SYNPO2L, Q9H987
T13 sequence (Q9H987 1-98, limits assumed, looked up): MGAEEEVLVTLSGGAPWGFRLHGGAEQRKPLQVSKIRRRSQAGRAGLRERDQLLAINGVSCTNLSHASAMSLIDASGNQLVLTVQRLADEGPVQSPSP

[20] = molecular target: T14, USH1C_1, Q9Y6N9
T14 sequence (Q9Y6N9 82-179, limits assumed, looked up): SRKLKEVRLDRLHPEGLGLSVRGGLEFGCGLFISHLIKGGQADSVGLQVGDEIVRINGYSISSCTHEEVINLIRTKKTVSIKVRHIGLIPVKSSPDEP

[21] = molecular target: T15, USH1C_3, Q9Y6N9
T15 sequence (Q9Y6N9 447-547, limits assumed, looked up): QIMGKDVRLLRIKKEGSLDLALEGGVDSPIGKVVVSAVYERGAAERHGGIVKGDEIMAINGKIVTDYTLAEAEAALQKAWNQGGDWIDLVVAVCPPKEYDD

Chain of DVL2, O14641 (O14641 260-359): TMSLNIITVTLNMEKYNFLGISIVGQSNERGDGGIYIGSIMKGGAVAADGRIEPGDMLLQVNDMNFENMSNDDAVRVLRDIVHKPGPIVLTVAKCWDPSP
Chain of CNKSR3, Q6P9H4 (Q6P9H4 203-303): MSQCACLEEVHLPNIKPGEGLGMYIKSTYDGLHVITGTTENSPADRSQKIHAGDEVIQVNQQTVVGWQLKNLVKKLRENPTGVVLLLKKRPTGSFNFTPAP

Binder: RTRQRNETQV [HPV51-E6, P26554]
- pKd [1]: below the threshold
- pKd [2]: 4.59
- pKd [3]: 5.1
- pKd [4]: below the threshold
- pKd [5]: below the threshold
- pKd [6]: below the threshold
- pKd [7]: below the threshold
- pKd [8]: 5.81
- pKd [9]: below the threshold
- pKd [10]: below the threshold
- pKd [11]: below the threshold
- pKd [12]: 4.22
- pKd [13]: below the threshold
- pKd [14]: below the threshold
- pKd [15]: below the threshold
- pKd [16]: below the threshold
- pKd [17]: below the threshold
- pKd [18]: below the threshold
- pKd [19]: below the threshold
- pKd [20]: below the threshold
- pKd [21]: 4.16
